{"source": "paper PMC10567730", "about": "“PTPN23 ubiquitination by WDR4 suppresses EGFR and c-MET degradation to define a lung cancer therapeutic target” (Cell Death & Disease, 2023)", "binders": {"B1": {"name": "GST-WDR4 (natural protein, UniProt P57081 1-412, looked up)", "chain": "MAGSVGLALCGQTLVVRGGSRFLATSIASSDDDSLFIYDCSAAEKKSQENKGEDAPLDQGSGAILASTFSKSGSYFALTDDSKRLILFRTKPWQCLSVRTVARRCTALTFIASEEKVLVADKSGDVYSFSVLEPHGCGRLELGHLSMLLDVAVSPDDRFILTADRDEKIRVSWAAAPHSIESFCLGHTEFVSRISVVPTQPGLLLSSSGDGTLRLWEYRSGRQLHCCHLASLQELVDPQAPQKFAASRIAFWCQENCVALLCDGTPVVYIFQLDARRQQLVYRQQLAFQHQVWDVAFEETQGLWVLQDCQEAPLVLYRPVGDQWQSVPESTVLKKVSGVLRGNWAMLEGSAGADASFSSLYKATFDNVTSYLKKKEERLQQQLEKKQRRRSPPPGPDGHAKKMRPGEATLSC", "notes": "WDR4 cDNA amplified by PCR and cloned to pGEX-4T-1; pGEX-4T-1 would place GST at the N-terminus (surmised from the vector); also called bacterially purified GST-WDR4"}}, "target": "T1, His-PTPN23 (UniProt Q9H3S7 1-1636)", "T1 construct": "PTPN23 cDNA amplified and subcloned to pVL1392 with a His-tag; also called baculovirally purified PTPN23; source: baculovirus, purified (Ni-Sepharose beads, eluted with imidazole)", "T1 sequence (Q9H3S7 whole entry)": "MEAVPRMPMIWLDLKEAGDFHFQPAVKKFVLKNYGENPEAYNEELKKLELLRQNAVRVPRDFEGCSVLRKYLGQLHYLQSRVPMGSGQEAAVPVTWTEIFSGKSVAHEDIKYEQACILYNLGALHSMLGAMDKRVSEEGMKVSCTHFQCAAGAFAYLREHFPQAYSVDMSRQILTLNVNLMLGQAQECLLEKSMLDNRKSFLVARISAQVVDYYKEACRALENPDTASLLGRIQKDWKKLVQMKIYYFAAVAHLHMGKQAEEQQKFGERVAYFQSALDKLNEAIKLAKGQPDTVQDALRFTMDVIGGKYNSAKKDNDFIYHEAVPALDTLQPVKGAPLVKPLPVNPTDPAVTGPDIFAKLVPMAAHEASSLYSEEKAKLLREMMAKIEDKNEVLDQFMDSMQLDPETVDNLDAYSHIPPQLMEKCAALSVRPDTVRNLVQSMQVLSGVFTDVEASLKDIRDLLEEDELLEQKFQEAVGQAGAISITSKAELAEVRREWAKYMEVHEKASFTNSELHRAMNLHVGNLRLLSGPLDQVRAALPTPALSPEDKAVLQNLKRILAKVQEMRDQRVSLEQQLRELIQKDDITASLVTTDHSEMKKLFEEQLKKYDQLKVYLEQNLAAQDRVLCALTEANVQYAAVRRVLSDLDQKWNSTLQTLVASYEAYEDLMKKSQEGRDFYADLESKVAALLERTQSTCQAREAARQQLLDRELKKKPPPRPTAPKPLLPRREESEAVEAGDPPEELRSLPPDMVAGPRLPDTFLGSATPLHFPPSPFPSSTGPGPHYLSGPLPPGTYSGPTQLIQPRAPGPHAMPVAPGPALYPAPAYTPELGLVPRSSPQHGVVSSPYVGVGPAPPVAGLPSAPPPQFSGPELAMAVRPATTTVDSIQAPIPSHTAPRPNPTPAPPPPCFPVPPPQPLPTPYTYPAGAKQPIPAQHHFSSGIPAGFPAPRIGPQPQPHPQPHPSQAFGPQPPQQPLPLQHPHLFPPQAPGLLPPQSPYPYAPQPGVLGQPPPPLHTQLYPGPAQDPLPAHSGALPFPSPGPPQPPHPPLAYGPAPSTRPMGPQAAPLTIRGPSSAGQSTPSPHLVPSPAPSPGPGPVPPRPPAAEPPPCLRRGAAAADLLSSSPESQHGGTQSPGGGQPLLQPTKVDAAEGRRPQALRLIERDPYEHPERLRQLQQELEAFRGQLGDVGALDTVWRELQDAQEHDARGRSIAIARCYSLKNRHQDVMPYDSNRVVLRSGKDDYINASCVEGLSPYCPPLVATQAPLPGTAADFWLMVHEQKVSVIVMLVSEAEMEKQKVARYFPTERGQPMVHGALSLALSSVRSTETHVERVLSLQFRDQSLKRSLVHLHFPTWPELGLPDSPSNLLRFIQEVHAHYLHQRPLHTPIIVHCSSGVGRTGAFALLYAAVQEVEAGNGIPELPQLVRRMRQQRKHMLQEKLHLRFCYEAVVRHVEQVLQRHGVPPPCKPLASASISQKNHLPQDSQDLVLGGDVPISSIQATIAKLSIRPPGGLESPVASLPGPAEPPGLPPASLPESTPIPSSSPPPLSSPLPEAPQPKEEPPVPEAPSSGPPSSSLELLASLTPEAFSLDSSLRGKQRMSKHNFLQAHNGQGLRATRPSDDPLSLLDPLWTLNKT", "assay": "pull-down; GST-WDR4 bound on glutathione beads incubated with purified PTPN23 or PTPN23 segments; binding buffer 50 mM Tris-HCl pH 7.5, 150 mM NaCl, 1% NP-40; bound proteins by Western blot", "conditions": "both partners purified"}
{"binder": "B1", "values": [{"measurement": "binding result", "value": "binds"}]}
